Measurements: patent US10155811B2, “APLNR modulators and uses thereof” (Regeneron Pharmaceuticals, Inc., priority 2013, dated 2018)
Positions count from the first letter of the chain named.

T1: hAPLNR (Homo sapiens, UniProt P35414)
T1 sequence (P35414 1-380): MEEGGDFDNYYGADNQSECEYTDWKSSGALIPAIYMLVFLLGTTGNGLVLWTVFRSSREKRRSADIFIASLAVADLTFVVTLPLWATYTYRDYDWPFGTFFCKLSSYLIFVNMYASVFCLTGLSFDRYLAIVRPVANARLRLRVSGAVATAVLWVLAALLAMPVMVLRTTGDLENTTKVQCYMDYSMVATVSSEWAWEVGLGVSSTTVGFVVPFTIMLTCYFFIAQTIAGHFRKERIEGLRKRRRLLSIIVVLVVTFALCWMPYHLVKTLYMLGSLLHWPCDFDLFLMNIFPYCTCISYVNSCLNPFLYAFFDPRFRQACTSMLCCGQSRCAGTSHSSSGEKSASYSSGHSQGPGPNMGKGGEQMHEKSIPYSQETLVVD

B1: H1M9207N: anti-APLNR antibody, HCVR/LCVR SEQ ID NO: 2/10, mouse IgG1 Fc (antibody, V domains shown)
VH: EVQLVESGGGLAQPGGSLRLSCAASGFTFSNYWMSWVRQAPGKGLEWVANIKQDGSEKYYLESVKGRFTISRDNAKNLLYLQMNSLRAEDTAVFYCARPGLLRFLEPGRRYYSGMNVWGQGTTVTVSS
VL: DIQLTQSPSFLSASVGDRVTITCWASQGIRSYLAWYQQKPGKAPKLLIYAASTLQSGVPSRFSGSGSGTEFTLTISSLQPEDFATYYCQQFNSYPWTFGQGTKVEIK
modifications: mouse IgG1 Fc
B2: H2aM9227N: anti-APLNR antibody, HCVR/LCVR SEQ ID NO: 50/58, mouse IgG2a Fc (antibody, V domains shown)
VH: EVQLVESGGGLVQPGGSLRLSCAASGFTFSSFWMSWVRQVPGKGLEWVANIKQDGSEKYYVDSVKGRFTISRDNAKNSLYLQMNSLRAEDTAVYYCARDRFGYSFYDKGVRYYYGMDVWGQGTTVTVSS
VL: DIQMTQSPSSLSVSVGDRVTITCRASQGIRNDLGWYQQKPGKAPKRLIYATSSLQSGVPSRFSGSGSGTEFTLTISGLQPEDFATYYCLQHNSYPRTFGQGTKVEIK
modifications: mouse IgG2a Fc
B3: H2aM9228N: anti-APLNR antibody, HCVR/LCVR SEQ ID NO: 66/74, mouse IgG2a Fc (antibody, V domains shown)
VH: B2 VH with S31N, F32Y, Q39L, V40A, K58R, D62G, D73G, N74D, F105A, Y106F
VL: B2 VL with V13A, T51A, G77S
modifications: mouse IgG2a Fc
B4: H2aM9230N: anti-APLNR antibody, HCVR/LCVR SEQ ID NO: 82/90, mouse IgG2a Fc (antibody, V domains shown)
VH: B2 VH with E46Q, F105V
VL: B2 VL with T51A, P80S, N92K
modifications: mouse IgG2a Fc
B5: H2aM9222N: anti-APLNR antibody, HCVR/LCVR SEQ ID NO: 34/42, mouse IgG2a Fc (antibody, V domains shown)
VH: B2 VH with S31N, F32Y, V40A, K58R, D62G, D73G, N74D, K76E, F105A
VL: B2 VL with V13A, T51A, G77S
modifications: mouse IgG2a Fc
B6: H4H9103P: anti-APLNR antibody, HCVR/LCVR SEQ ID NO: 162/170, human IgG4 Fc (antibody, V domains shown)
VH: EVQLVESGGGLVQPGRSLRLSCAASGFTFDDYAMHWVRQVPGKGLEWVSGITWNSGDIGYADSVKGRFTISRDNAKNSLYLQMNSLRAEDTALYYCTKDKDSSGYYGIDVWGQGTTVTVSS
VL: DIQMTQSPSSVSASVGDRVTITCRASQGIRTWLAWYQQKPGKAPKLLIYAASSLQSGVPSRFSGSESGTDFTLTISSLQPEDFATYYCQQANSFPFTFGPGTKVDIK
modifications: human IgG4 Fc
B7: H4H9101P: anti-APLNR antibody, HCVR/LCVR SEQ ID NO: 146/154, human IgG4 Fc (antibody, V domains shown)
VH: QVQLVQSGAEVKKPGASVEVSCKASGYTFTDYYIHWIRQAPGQGLEWMGWINPDSGRTNYAQKFQVRVTMTRDTSITTAYMELNRLKSDDTAVYYCARGPLRGYSGYDFFDYWGQGTLVTVSS
VL: B1 VL with R30S, T85S, Y87F, F91L, Y94N, W96R
modifications: human IgG4 Fc
B8: H4H9112P: anti-APLNR antibody, HCVR/LCVR SEQ ID NO: 194/202, human IgG4 Fc (antibody, V domains shown)
VH: B7 VH
VL: DIQMTQSPSSLSAFVGDRVTITCRASQSISSYLNWYQQKPGKAPKLLIYTASTLQRGVPSRFRGSGSGTDFTLTISSLQPEDFATYYCHQTYSIPITFGQGTRLEIK
modifications: human IgG4 Fc
B9: H4H9104P: anti-APLNR antibody, HCVR/LCVR SEQ ID NO: 178/186, human IgG4 Fc (antibody, V domains shown)
VH: QVQLVESGGDLVKPGGSLRLSCAASGFTFSDYYMNWIRQAPGKGLEWVSYISSSGSTIHYADSVKGRFTISRDNAKNLVYLRMNSLRAEDTAVYFCAREREVHDYSDPYFFFYGMDVWGQGTTVTVSS
VL: DIQMTQSPSSVSASVGDRVTITCRASQDVSSWLAWYQHKPGKAPKLLIFAASSLQSGVPSRFSGSGSGTDFTLTISSLQSEDFATYYCQQANSFPLTFGGGTKVEIK
modifications: human IgG4 Fc
B10: H4H9113P: anti-APLNR antibody, HCVR/LCVR SEQ ID NO: 210/218, human IgG4 Fc (antibody, V domains shown)
VH: B7 VH
VL: B2 VL with V13A, K45N, T51A, G77S, Q79H, Y87S, Y94F, R96L, Q100G
modifications: human IgG4 Fc

These molecules were tested on HEK293 parental cells (assay: FACS binding to HEK293 parental cells). Details: Table 3; 10 μg/mL antibody; anti-mouse IgG Alexa 647.
Protocol: Binding ratios for human APLNR binding to purified anti-APLNR monoclonal antibodies were determined by a fluorescence-activated cell sorting (FACS) binding assay. […] The resulting stable cell lines, HEK293/CRE-luc/hAPLNR and HEK293/CRE-luc/MfAPLNR, were maintained in DMEM containing 10% FBS, NEAA, and penicillin/streptomycin with either 100 μg/mL Hygromycin B for hAPLNR cells or 500 μg/mL G418 for MfAPLNR cells.
For the FACS analysis, HEK293 parental, HEK293/CRE-luc/hAPLNR, and, HEK293/CRE-luc/mfAPLNR cells were dissociated using Enzyme Free Dissociation reagent (#S-004, Millipore, Billerica, Mass., USA) and 10^6 cells/well were plated onto 96-well v-bottom plates in PBS containing 1% FBS. […] Cells were then filtered and analyzed on Accuri Flow Cytometer (BD Biosciences, San Jose, Calif., USA). Unstained and secondary antibody alone controls were also tested for binding to all cell lines. […] Geometric mean (Geom. mean) of fluorescence for each antibody was then normalized to geometric mean of unstained cells to obtain relative binding of antibody (binding ratios) per each cell type: HEK293 (parental), HEK293/CRE-luc/hAPLNR and HEK293/CRE-luc/MfAPLNR.
For B1, the “Binding Ratio of Geom. Mean to Unstained Cells, HEK293 Parental” value (from here on “Binding Ratio of Geom. Mean”) was 4.
In the case of B2, the “Binding Ratio of Geom. Mean” value is reported as 4.
In the case of B3, the “Binding Ratio of Geom. Mean” value is reported as 3.
In the case of B4, the “Binding Ratio of Geom. Mean” value is reported as 3.
With B5 the “Binding Ratio of Geom. Mean” value was 2.

The molecules below were run against T1, hAPLNR (assay: CRE-luciferase cyclic AMP assay, activation of hAPLNR (inhibition of Forskolin-induced cAMP) in HEK293/CRE-luc/hAPLNR cells). Details: Table 6A; without Apelin; % of maximum Apelin activation.
Format: cell-based
Parameters: expressed in transfected cells
Protocol: The ability of anti-APLNR antibodies to activate hAPLNR-mediated cell signaling was measured using a cyclic AMP assay. The hAPLNR is a 7-transmembrane G-protein coupled receptor (GPCR).
(§1) The resulting cell line, HEK293/CRE-luc/hAPLNR, was maintained in DMEM containing 10% FBS, NEAA, pencillin/streptomycin, and 100 μg/mL Hygromycin B.
(§2) Testing of antibodies included a no antibody control.
(§3) The results of all assays were analyzed using nonlinear regression (4-parameter logistics) within Prism 5 software (GraphPad).
B6 was tested, and the “% Activation at 100 nM mAb (at 5 uM Forskolin)” value was “No Activation”.
With B7 the “% Activation at 100 nM mAb (at 5 uM Forskolin)” value was “No Activation”.
B1 was tested, and the “% Activation at 100 nM mAb (at 10 uM Forskolin)” value was “No Activation”.
For B8, the “% Activation at 100 nM mAb (at 5 uM Forskolin)” value was “No Activation”.
B9 was tested, and the “% Activation at 100 nM mAb (at 5 uM Forskolin)” value was “No Activation”.
For B2, the “% Activation at 100 nM mAb (at 10 uM Forskolin)” value was 12%.
With B3 the “% Activation at 100 nM mAb (at 10 uM Forskolin)” value was “No Activation”.
For B4, the “% Activation at 100 nM mAb (at 10 uM Forskolin)” value was “No Activation”.
For B5, the “% Activation at 100 nM mAb (at 10 uM Forskolin)” value was “No Activation”.
B10 was tested, and the “% Activation at 100 nM mAb (at 5 uM Forskolin)” value was “No Activation”.

Same assay, conditions: without Apelin; 100 nM highest antibody dose tested
B2 was tested, and the “activation of hAPLNR, % of maximum Apelin activation at 100 nM” value was 12%.

What follows are molecules tested against T1, hAPLNR (assay: CRE-luciferase cyclic AMP assay, inhibition of hAPLNR in the presence of 100 ρM Apelin in HEK293/CRE-luc/hAPLNR cells). Details: Table 6C.
Format: cell-based
Parameters: expressed in transfected cells
Protocol: as §1, §2, §3
With B5 the “% Inhibition at 100 nM antibody, in the presence of 100 ρM Apelin (at 5 μM Forskolin)” value (from here on “% Inhibition at 100 nM antibody”) was 11% (IC).

Same assay, conditions: Table 6D
B6 was tested, and the “% Inhibition at 100 nM antibody” value was “No Inhibition”.
In the case of B7, the “% Inhibition at 100 nM antibody” value is reported as “No Inhibition”.
With B8 the “% Inhibition at 100 nM antibody” value was “No Inhibition”.
In the case of B9, the “% Inhibition at 100 nM antibody” value is reported as “No Inhibition”.
With B10 the “% Inhibition at 100 nM antibody” value was “No Inhibition”.

Same assay, conditions: unmodified anti-APLNR antibodies
In the case of B6, the “inhibition (maximum blockade) of 100 ρM Apelin activation” value (shortened to “inhibition (maximum blockade)”) is reported as “did not demonstrate any measurable blockade”.
B7 was tested, and the “inhibition (maximum blockade)” value was “did not demonstrate any measurable blockade”.
With B8 the “inhibition (maximum blockade)” value was “did not demonstrate any measurable blockade”.
B9 was tested, and the “inhibition (maximum blockade)” value was “did not demonstrate any measurable blockade”.
With B10 the “inhibition (maximum blockade)” value was “did not demonstrate any measurable blockade”.
